According to article PMC9482650, “Quantitative fragmentomics allow affinity mapping of interactomes” (Nature Communications, 2022):

T1: PCLO, Q9Y6V0
T1 sequence (Q9Y6V0 4491-4600, limits assumed, looked up): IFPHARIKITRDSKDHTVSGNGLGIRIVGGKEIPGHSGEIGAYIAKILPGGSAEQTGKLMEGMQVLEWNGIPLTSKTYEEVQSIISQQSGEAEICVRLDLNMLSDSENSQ

T2: CARD11, Q9BXL7
T2 sequence (Q9BXL7 662-765, limits assumed, looked up): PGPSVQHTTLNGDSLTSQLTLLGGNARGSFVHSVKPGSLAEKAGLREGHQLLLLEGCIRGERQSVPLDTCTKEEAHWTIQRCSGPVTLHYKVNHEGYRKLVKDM

T3: NHERF3_3, Q5T2W1
T3 sequence (Q5T2W1 238-333, limits assumed, looked up): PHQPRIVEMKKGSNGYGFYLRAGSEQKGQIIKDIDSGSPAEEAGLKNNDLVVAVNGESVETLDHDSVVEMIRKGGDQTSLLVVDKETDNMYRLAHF

T4: NHERF3_1, Q5T2W1
T4 sequence (Q5T2W1 4-100, limits assumed, looked up): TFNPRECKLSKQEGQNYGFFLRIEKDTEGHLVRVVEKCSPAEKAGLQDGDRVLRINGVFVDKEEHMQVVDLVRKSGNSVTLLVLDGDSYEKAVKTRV

T5: LRRC7, Q96NW7
T5 sequence (Q96NW7 1440-1537, limits assumed, looked up): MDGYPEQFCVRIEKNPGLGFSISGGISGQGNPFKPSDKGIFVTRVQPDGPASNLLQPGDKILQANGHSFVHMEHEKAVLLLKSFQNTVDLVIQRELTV

T6: SNTG1, Q9NSN8
T6 sequence (Q9NSN8 52-150, limits assumed, looked up): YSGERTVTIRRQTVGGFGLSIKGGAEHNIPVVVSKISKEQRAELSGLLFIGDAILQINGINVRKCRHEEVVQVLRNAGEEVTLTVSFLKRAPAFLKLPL

T7: LNX2_2, Q8N448
T7 sequence (Q8N448 334-432, limits assumed, looked up): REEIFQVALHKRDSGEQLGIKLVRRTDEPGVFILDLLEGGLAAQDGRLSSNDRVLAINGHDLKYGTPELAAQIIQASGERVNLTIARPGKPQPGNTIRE

T8: LIN7B, Q9HAP6
T8 sequence (Q9HAP6 88-185, limits assumed, looked up): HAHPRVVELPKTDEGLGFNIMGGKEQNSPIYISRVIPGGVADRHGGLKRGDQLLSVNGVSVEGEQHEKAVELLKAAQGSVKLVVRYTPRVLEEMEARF

T9: HTRA3, P83110
T9 sequence (P83110 354-453, limits assumed, looked up): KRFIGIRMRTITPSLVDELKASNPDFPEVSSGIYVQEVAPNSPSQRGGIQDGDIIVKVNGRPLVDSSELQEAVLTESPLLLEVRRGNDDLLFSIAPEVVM


Assays:
Assay in all cases: holdup assay
Set-up in all cases: key: below the threshold = too weak to quantify, mostly under pKd 3.1 to 4
Conditions in all cases: plain residues with an end cap or a label only (N-terminal biotin on a linker: ado-ado)
[1] = biological target: NHERF4_1, Q86UT5-2
Sequence of NHERF4_1, Q86UT5-2 (Q86UT5 other isoform, or with tags, fused parts or gaps): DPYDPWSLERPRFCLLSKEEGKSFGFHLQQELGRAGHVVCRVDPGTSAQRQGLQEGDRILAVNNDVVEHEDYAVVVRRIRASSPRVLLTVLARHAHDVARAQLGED

[2] = biological target: IL16_3, Q14005
Sequence of IL16_3, Q14005 (Q14005 1107-1207): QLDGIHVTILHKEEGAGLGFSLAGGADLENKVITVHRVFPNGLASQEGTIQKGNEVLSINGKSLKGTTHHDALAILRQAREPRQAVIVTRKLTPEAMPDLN

[3] = biological target: T1, PCLO, Q9Y6V0
[4] = biological target: LAP2, Q96RT1
Sequence of LAP2, Q96RT1 (Q96RT1 other isoform, or with tags, fused parts or gaps): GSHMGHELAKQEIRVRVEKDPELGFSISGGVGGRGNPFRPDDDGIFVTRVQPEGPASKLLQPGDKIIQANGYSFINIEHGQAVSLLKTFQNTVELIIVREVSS

[5] = biological target: T2, CARD11, Q9BXL7
[6] = biological target: LDB3, O75112
Sequence of LDB3, O75112 (O75112 1-94): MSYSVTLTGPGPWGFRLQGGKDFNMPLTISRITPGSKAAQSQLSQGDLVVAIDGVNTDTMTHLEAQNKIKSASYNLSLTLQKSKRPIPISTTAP

[7] = biological target: Inadl_10, Q8NI35
Sequence of Inadl_10, Q8NI35 (Q8NI35 1673-1763): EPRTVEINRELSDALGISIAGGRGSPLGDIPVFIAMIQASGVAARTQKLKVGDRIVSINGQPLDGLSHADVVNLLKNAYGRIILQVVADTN

[8] = biological target: T3, NHERF3_3, Q5T2W1
[9] = biological target: T4, NHERF3_1, Q5T2W1
[10] = biological target: PICK1, Q9NRD5
Sequence of PICK1, Q9NRD5 (Q9NRD5 17-115): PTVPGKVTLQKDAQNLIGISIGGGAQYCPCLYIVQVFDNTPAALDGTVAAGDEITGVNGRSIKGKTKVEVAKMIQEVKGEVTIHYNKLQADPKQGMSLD

[11] = biological target: TJP2_1, Q9UDY2
Sequence of TJP2_1, Q9UDY2 (Q9UDY2 24-128): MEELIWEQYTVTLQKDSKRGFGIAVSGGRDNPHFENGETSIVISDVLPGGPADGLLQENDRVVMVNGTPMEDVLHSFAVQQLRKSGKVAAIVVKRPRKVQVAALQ

[12] = biological target: GOPC, Q9HD26
[13] = biological target: T5, LRRC7, Q96NW7
[14] = biological target: DLG5_1, Q8TDM6
Sequence of DLG5_1, Q8TDM6 (Q8TDM6 617-713): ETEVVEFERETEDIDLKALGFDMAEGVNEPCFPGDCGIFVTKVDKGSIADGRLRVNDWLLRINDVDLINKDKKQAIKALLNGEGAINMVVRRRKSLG

[15] = biological target: SCRIB_3, Q14160
Sequence of SCRIB_3, Q14160 (Q14160 999-1103): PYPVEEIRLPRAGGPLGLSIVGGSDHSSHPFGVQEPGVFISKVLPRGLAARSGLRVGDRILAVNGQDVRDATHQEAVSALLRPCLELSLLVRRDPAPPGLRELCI

[16] = biological target: MAGI2_4, Q86UL8
Sequence of MAGI2_4, Q86UL8 (Q86UL8 772-865): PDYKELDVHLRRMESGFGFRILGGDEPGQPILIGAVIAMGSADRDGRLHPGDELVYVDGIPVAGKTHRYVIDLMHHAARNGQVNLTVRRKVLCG

[17] = biological target: T6, SNTG1, Q9NSN8
[18] = biological target: Inadl_5, Q8NI35
Sequence of Inadl_5, Q8NI35 (Q8NI35 673-780): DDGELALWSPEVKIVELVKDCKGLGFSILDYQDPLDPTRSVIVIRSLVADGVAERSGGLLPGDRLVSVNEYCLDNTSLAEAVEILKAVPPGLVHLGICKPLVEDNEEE

[19] = biological target: GRIP2_7, Q9C0E4
Sequence of GRIP2_7, Q9C0E4 (Q9C0E4 934-1023): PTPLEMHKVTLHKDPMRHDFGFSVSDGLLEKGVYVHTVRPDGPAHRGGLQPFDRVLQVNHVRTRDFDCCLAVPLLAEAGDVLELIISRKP

[20] = biological target: T7, LNX2_2, Q8N448
[21] = biological target: NHERF4_2, Q86UT5
Sequence of NHERF4_2, Q86UT5 (Q86UT5 220-308): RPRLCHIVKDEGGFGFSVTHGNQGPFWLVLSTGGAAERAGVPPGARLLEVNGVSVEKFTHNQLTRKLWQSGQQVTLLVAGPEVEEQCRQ

[22] = biological target: DLG4_3, P78352
Sequence of DLG4_3, P78352 (P78352 306-403): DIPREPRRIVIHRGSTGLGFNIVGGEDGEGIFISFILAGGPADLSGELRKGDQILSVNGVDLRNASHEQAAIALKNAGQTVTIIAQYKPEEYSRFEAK

[23] = biological target: GRID2IP_2, A4D2P6
Sequence of GRID2IP_2, A4D2P6 (A4D2P6 272-370): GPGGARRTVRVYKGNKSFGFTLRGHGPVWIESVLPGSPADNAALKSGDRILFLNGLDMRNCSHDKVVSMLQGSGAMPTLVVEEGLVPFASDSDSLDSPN

[24] = biological target: T8, LIN7B, Q9HAP6
[25] = biological target: T9, HTRA3, P83110
[26] = biological target: SNX27, Q96L92
[27] = biological target: SCRIB_2, Q14160
Sequence of SCRIB_2, Q14160 (Q14160 857-960): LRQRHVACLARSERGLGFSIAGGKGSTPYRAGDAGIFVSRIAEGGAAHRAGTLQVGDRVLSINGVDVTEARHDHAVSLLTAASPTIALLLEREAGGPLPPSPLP

[28] = biological target: GRIP2_5, Q9C0E4
Sequence of GRIP2_5, Q9C0E4 (Q9C0E4 544-642): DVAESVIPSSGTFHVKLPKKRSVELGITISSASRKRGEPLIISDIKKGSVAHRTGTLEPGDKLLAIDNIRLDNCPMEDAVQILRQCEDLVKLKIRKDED

pKd [1] | pKd [2] | pKd [3] | pKd [4] | pKd [5] | pKd [6] | pKd [7] | pKd [8] | pKd [9] | pKd [10] | pKd [11] | pKd [12] | pKd [13] | pKd [14] | pKd [15] | pKd [16] | pKd [17] | pKd [18] | pKd [19] | pKd [20] | Binder | also measured
3.57 | below the threshold | below the threshold | below the threshold | below the threshold | below the threshold | below the threshold | below the threshold | 3.86 | below the threshold | below the threshold | below the threshold | below the threshold | below the threshold | below the threshold | below the threshold | below the threshold | below the threshold | below the threshold | below the threshold | QKAPTKEFYA [SDC2, P34741] | pKd [21]: below the threshold; pKd [22]: below the threshold; pKd [23]: below the threshold; pKd [24]: 3.53; pKd [25]: 4.31; pKd [26]: below the threshold; pKd [27]: below the threshold; pKd [28]: below the threshold
below the threshold | below the threshold | below the threshold | below the threshold | below the threshold | below the threshold | below the threshold | below the threshold | below the threshold | below the threshold | below the threshold | below the threshold | below the threshold | below the threshold | 3.84 | below the threshold | below the threshold | below the threshold | below the threshold | 4.18 | EDLEDEWEVI [TECPR2, O15040] | pKd [21]: below the threshold; pKd [22]: below the threshold; pKd [23]: below the threshold; pKd [24]: 3.74; pKd [25]: 4.12; pKd [26]: below the threshold; pKd [27]: below the threshold; pKd [28]: below the threshold

More lines, now with the values behind:

Binder | pKd [1] | pKd [2] | pKd [3] | pKd [4] | pKd [5] | pKd [6] | pKd [7] | pKd [8] | pKd [9] | pKd [10] | pKd [11] | pKd [12] | pKd [13] | pKd [14] | pKd [15] | pKd [16] | pKd [17] | pKd [18] | pKd [19] | pKd [20] | also measured
QLSFNTDTLC [ABCA2, Q9BZC7] | 4.18 | below the threshold | below the threshold | below the threshold | below the threshold | below the threshold | below the threshold | below the threshold | 4.07 | below the threshold | below the threshold | below the threshold | below the threshold | below the threshold | below the threshold | 4.17 | below the threshold | below the threshold | below the threshold | 3.78 | pKd [21]: below the threshold; pKd [22]: below the threshold; pKd [23]: below the threshold; pKd [24]: 3.66; pKd [25]: 4.26; pKd [26]: 4.17; pKd [27]: below the threshold; pKd [28]: below the threshold
EKCGKEFSEF [PRKACA, P17612] | 3.56 | below the threshold | below the threshold | below the threshold | below the threshold | below the threshold | below the threshold | below the threshold | below the threshold | 3.91 | below the threshold | below the threshold | below the threshold | below the threshold | below the threshold | 3.62 | below the threshold | below the threshold | below the threshold | 3.49 | pKd [21]: below the threshold; pKd [22]: below the threshold; pKd [23]: below the threshold; pKd [24]: 3.92; pKd [25]: below the threshold; pKd [26]: below the threshold; pKd [27]: below the threshold; pKd [28]: below the threshold
TGLWKHETTV [ADGRA3, Q8IWK6] | below the threshold | below the threshold | below the threshold | 4.32 | below the threshold | below the threshold | below the threshold | below the threshold | 3.63 | 4.16 | 3.65 | 3.92 | 3.82 | below the threshold | 4.88 | 4.77 | 4.46 | below the threshold | below the threshold | 4.93 | pKd [21]: below the threshold; pKd [22]: 4.94; pKd [23]: below the threshold; pKd [24]: 4.04; pKd [25]: below the threshold; pKd [26]: 5.41; pKd [27]: 4.56; pKd [28]: below the threshold
